{
  "source": "patent US10744088B2",
  "about": "“Method for preparing ophthalmic preparation containing thymosin beta-4” (G-TREEBNT CO., LTD., priority 2015, dated 2020)",
  "key": {"[1]": {"experiment": "Purity analysis of ophthalmic preparations by HPLC", "format": "physicochemical", "conditions": "after preparation, HPLC UV 205 nm", "protocol": "The purity changes of the ophthalmic preparations prepared in the above Examples and Comparative Examples were analyzed during the period from the initial time after preparation to 12 months later with a high performance liquid chromatography (HPLC), Agilent 1200 instrument under the conditions in Tables 1 and 2, and the results are shown in Table 3."}, "[2]": {"experiment": "Impurity analysis (single maximum impurity, thymosin β4 sulfoxide) by HPLC and LC/MS", "format": "physicochemical", "conditions": "after preparation; impurity identified as thymosin β4 sulfoxide", "protocol": "The amounts of impurities in the ophthalmic preparations prepared in the above Examples and Comparative Examples were analyzed as following, and the results are shown in Table 3.\nSpecifically, thymosin β4 sulfoxide was synthesized following the methods in the paper (Eur. J. Biochem. 223, 345-350 (1994), Nature Medicine 5(12), 1424 (1999)). Thymosin β4 sulfoxide is a substance modified from thymosin β4 by oxidation, which causes a change in its pharmacological activity compared to thymosin β4.\nThe molecular weight of the synthesized thymosin β4 sulfoxide was identified by mass analysis (LC/MS) using the MALDI-TOF MS instrument. The analyzed molecular weight was 4,978.5, which was consistent with the value in the document of 4,980±2.\nThe ophthalmic preparations prepared in Example 1 and Comparative Examples 1 and 2 and the synthesized thymosin β4 sulfoxide were analyzed by HPLC and LC/MS under the same conditions."}},
  "data": [
    {"substance": "thymosin β4 acetate [Thymosin β4 (raw material)]", "values": [
      {"measurement": "Purity (%)", "setting": "[1]", "result": 99.3, "unit": "%"},
      {"measurement": "Single maximum impurity (%)", "setting": "[2]", "result": "Not detected"}
    ]}
  ]
}
